In patent US20160244497A1 (Amgen, published 2016):
Several values for one entry are separate records, joined by “and”; a condition that tells them apart may be missing. Identical values can stand only once. Like-named read-outs stand apart in the source and are kept apart here.

B1: FGF21(all K to all R, R72K), 2 x 20k PEG (ligand)
chain: MHPIPDSSPLLQFGGQVRQRYLYTDDAQQTEAHLEIREDGTVGGAADQSPESLLQLRALRPGVIQILGVRTSKFLCQRPDGALYGSLHFDPEACSFRELLLEDGYNVYQSEAHGLPLHLPGNRSPHRDPAPRGPARFLPLPGLPPAPPEPPGILAPQPPDVGSSDPLSMVGPSQGRSPSYAS
modifications: two 20k PEG (amine-specific): N-terminus and Lys 72
B2: Tethered Molecule of two FGF21 E91C, P171G polypeptides (20 kDa PEG linker) (ligand)
chain: MHPIPDSSPLLQFGGQVRQRYLYTDDAQQTEAHLEIREDGTVGGAADQSPESLLQLKALKPGVIQILGVKTSRFLCQRPDGALYGSLHFDPCACSFRELLLEDGYNVYQSEAHGLPLHLPGNKSPHRDPAPRGPARFLPLPGLPPAPPEPPGILAPQPPDVGSSDPLSMVGGSQGRSPSYAS
modifications: Cys 91 of the two chains joined by one 20 kDa PEG bis-maleimide
B3: dually PEGylated FGF21 mutant E37C, E91C, P171G (ligand)
chain: MHPIPDSSPLLQFGGQVRQRYLYTDDAQQTEAHLEIRCDGTVGGAADQSPESLLQLKALKPGVIQILGVKTSRFLCQRPDGALYGSLHFDPCACSFRELLLEDGYNVYQSEAHGLPLHLPGNKSPHRDPAPRGPARFLPLPGLPPAPPEPPGILAPQPPDVGSSDPLSMVGGSQGRSPSYAS
modifications: 20 kDa methoxy-PEG-maleimide on Cys 37 and on Cys 91
B4: N-terminally PEGylated wild-type FGF21 (20 kDa PEG) (ligand)
chain: MHPIPDSSPLLQFGGQVRQRYLYTDDAQQTEAHLEIREDGTVGGAADQSPESLLQLKALKPGVIQILGVKTSRFLCQRPDGALYGSLHFDPEACSFRELLLEDGYNVYQSEAHGLPLHLPGNKSPHRDPAPRGPARFLPLPGLPPAPPEPPGILAPQPPDVGSSDPLSMVGPSQGRSPSYAS
modifications: one 20 kDa PEG on the N-terminus (alpha-amino group)
B5: Tethered Molecule of two FGF21 R77C, P171G polypeptides (20 kDa PEG linker) (ligand)
chain: MHPIPDSSPLLQFGGQVRQRYLYTDDAQQTEAHLEIREDGTVGGAADQSPESLLQLKALKPGVIQILGVKTSRFLCQCPDGALYGSLHFDPEACSFRELLLEDGYNVYQSEAHGLPLHLPGNKSPHRDPAPRGPARFLPLPGLPPAPPEPPGILAPQPPDVGSSDPLSMVGGSQGRSPSYAS
modifications: Cys 77 of the two chains joined by one 20 kDa PEG bis-maleimide
B6: dually PEGylated FGF21 mutant E37C, R77C, P171G (ligand)
chain: MHPIPDSSPLLQFGGQVRQRYLYTDDAQQTEAHLEIRCDGTVGGAADQSPESLLQLKALKPGVIQILGVKTSRFLCQCPDGALYGSLHFDPEACSFRELLLEDGYNVYQSEAHGLPLHLPGNKSPHRDPAPRGPARFLPLPGLPPAPPEPPGILAPQPPDVGSSDPLSMVGGSQGRSPSYAS
modifications: 20 kDa methoxy-PEG-maleimide on Cys 37 and on Cys 77
B7: Tethered Molecule of two FGF21 E37C, P171G polypeptides (20 kDa PEG linker) (ligand)
chain: MHPIPDSSPLLQFGGQVRQRYLYTDDAQQTEAHLEIRCDGTVGGAADQSPESLLQLKALKPGVIQILGVKTSRFLCQRPDGALYGSLHFDPEACSFRELLLEDGYNVYQSEAHGLPLHLPGNKSPHRDPAPRGPARFLPLPGLPPAPPEPPGILAPQPPDVGSSDPLSMVGGSQGRSPSYAS
modifications: Cys 37 of the two chains joined by one 20 kDa PEG bis-maleimide
B8: dually PEGylated FGF21 mutant E91C, H125C, P171G (ligand)
chain: MHPIPDSSPLLQFGGQVRQRYLYTDDAQQTEAHLEIREDGTVGGAADQSPESLLQLKALKPGVIQILGVKTSRFLCQRPDGALYGSLHFDPCACSFRELLLEDGYNVYQSEAHGLPLHLPGNKSPCRDPAPRGPARFLPLPGLPPAPPEPPGILAPQPPDVGSSDPLSMVGGSQGRSPSYAS
modifications: 20 kDa methoxy-PEG-maleimide on Cys 91 and on Cys 125
B9: Tethered Molecule of two FGF21 H125C, P171G polypeptides (20 kDa PEG linker) (ligand)
chain: MHPIPDSSPLLQFGGQVRQRYLYTDDAQQTEAHLEIREDGTVGGAADQSPESLLQLKALKPGVIQILGVKTSRFLCQRPDGALYGSLHFDPEACSFRELLLEDGYNVYQSEAHGLPLHLPGNKSPCRDPAPRGPARFLPLPGLPPAPPEPPGILAPQPPDVGSSDPLSMVGGSQGRSPSYAS
modifications: Cys 125 of the two chains joined by one 20 kDa PEG bis-maleimide
B10: Tethered Molecule of two FGF21 G120C, P171G polypeptides (20 kDa PEG linker) (ligand)
chain: MHPIPDSSPLLQFGGQVRQRYLYTDDAQQTEAHLEIREDGTVGGAADQSPESLLQLKALKPGVIQILGVKTSRFLCQRPDGALYGSLHFDPEACSFRELLLEDGYNVYQSEAHGLPLHLPCNKSPHRDPAPRGPARFLPLPGLPPAPPEPPGILAPQPPDVGSSDPLSMVGGSQGRSPSYAS
modifications: Cys 120 of the two chains joined by one 20 kDa PEG bis-maleimide
B11: FGF21 mutant H125C, P171G, PEGylated at the N-terminus (10k) and Cys 125 (20k) (ligand)
chain: MHPIPDSSPLLQFGGQVRQRYLYTDDAQQTEAHLEIREDGTVGGAADQSPESLLQLKALKPGVIQILGVKTSRFLCQRPDGALYGSLHFDPEACSFRELLLEDGYNVYQSEAHGLPLHLPGNKSPCRDPAPRGPARFLPLPGLPPAPPEPPGILAPQPPDVGSSDPLSMVGGSQGRSPSYAS
modifications: 10 kDa PEG on the N-terminus; 20 kDa PEG on Cys 125
B12: dually PEGylated FGF21 mutant E37C, R175C, P171G (ligand)
chain: MHPIPDSSPLLQFGGQVRQRYLYTDDAQQTEAHLEIRCDGTVGGAADQSPESLLQLKALKPGVIQILGVKTSRFLCQRPDGALYGSLHFDPEACSFRELLLEDGYNVYQSEAHGLPLHLPGNKSPHRDPAPRGPARFLPLPGLPPAPPEPPGILAPQPPDVGSSDPLSMVGGSQGCSPSYAS
modifications: 20 kDa methoxy-PEG-maleimide on Cys 37 and on Cys 175
B13: dually PEGylated FGF21 mutant E91C, R175C, P171G (ligand)
chain: MHPIPDSSPLLQFGGQVRQRYLYTDDAQQTEAHLEIREDGTVGGAADQSPESLLQLKALKPGVIQILGVKTSRFLCQRPDGALYGSLHFDPCACSFRELLLEDGYNVYQSEAHGLPLHLPGNKSPHRDPAPRGPARFLPLPGLPPAPPEPPGILAPQPPDVGSSDPLSMVGGSQGCSPSYAS
modifications: 20 kDa methoxy-PEG-maleimide on Cys 91 and on Cys 175

Assays:
Assay in all cases: cell-based or functional assay
[1] = biological target: beta-klotho
[2] = biological target: beta-klotho; remark: listed apart in the source
[3] = biological target: beta-klotho; remark: listed apart in the source
[4] = biological target: beta-klotho; remark: listed apart in the source
[5] = biological target: beta-klotho; remark: listed apart in the source
[6] = biological target: beta-klotho; remark: listed apart in the source

EC50, ELK-luciferase assay [2] [nM] | EC50, ELK-luciferase assay [3] [nM] | also measured | Binder
– | – | In Vitro Activity EC50, ELK-luciferase assay [1]: > 1000 nM | B1
0.2 | – | – | B2
– | 30 | – | B3
– | – | In Vitro Activity EC50, ELK-luciferase assay [1]: 43.3 nM; EC50, ELK-luciferase assay [4]: 36.7 nM and 43.3 nM and 21.5 nM and 40 nM; EC50, ELK-luciferase assay [5]: 37 nM | B4
0.25 | – | – | B5
– | 27 | – | B6
0.36 | – | – | B7
– | 37 | – | B8
0.21 | – | – | B9
0.51 | – | – | B10
– | – | EC50, ELK-luciferase assay [6]: 65 nM | B11
– | 162 | – | B12
– | 155 | – | B13
